The values that follow come from patent publication US5356875A, “Anti-thrombin polypeptides and pharmaceutical compositions thereof” (Farmitalia Carlo ERBA S.r.l., priority 1991, dated 1994).

The conditions of series [1]: cited from earlier work.
For series [2], the target named is T1, thrombin (Homo sapiens, UniProt P00734). Kind of series: chromogenic assay: inhibition of thrombin cleavage of synthetic substrate S-2238. Format: biochemical.
The target in series [3] is T1, thrombin. Briefly: anti-thrombin activity of P2 released from fusion protein (test not specified). Format: biochemical. The note with it: P2 released by CNBr cleavage of polyhedrin fusion protein from S. frugiperda cytoplasm. How it is done:
The recombinant baculovirus was obtained as described in Example 5. Infection of S. frugiperda cells was carried out according to standard procedures^20. Cultivation of infected insect cells lead to the cytoplasmic accumulation of the fusion protein. This hybrid protein was the source of recombinant protein P2. Several methods are available from the literature which can be used to cleave the hybrid with CNBr^22,23.The application of the method of Olson et al^23, has allowed us to obtain the correct polypeptidic sequence of P2.

In the case of hirudin, the “efficacy in preventing venous thrombosis, vascular shunt occlusion and thrombin-induced disseminated intravascular coagulation” value in series [1] (animal studies) was “demonstrated efficacy”. Moreover, in series [1] (in vivo), the antigenicity entry is given as “little or no antigenicity”, the “clearance time from circulation” value is listed as “very short clearance time” and the toxicity entry is listed as “low toxicity”.

B1: P2: 64-residue anti-thrombin polypeptide from Hirudinaria manillensis, HPLC peak P2, sequence (ii); also produced recombinantly in E. coli and insect cells (protein)
chain: VSYTDCTESGQNYCLCVGSNVCGEGKNCQLSSSGNQCVHGEGTPKPKSQTEGDFEEIPDEDILN
For the molecule B1, the “activity of P2” value with thrombin [2] (E. coli type B strains with plasmid pOMP-P2 (Plpp/lac promoter)) is listed as “active”. In addition, the anti-thrombin activity result is recorded as “presence of an anti-thrombin activity” with thrombin [2] (culture supernatants of S. frugiperda cells infected with recombinant baculovirus, spinner culture or monolayers); “presence of anti-thrombin activity” with thrombin [2] (periplasmic fraction of E. coli type B NCTC 10537 transformed with pFC-P2); “displayed anti-thrombin activity” with thrombin [3].
